These results are taken from patent US20150073033A1 (University of Texas, published 2015).

B1: FLAG-tagged WT β-catenin (other, UniProt P35222 1-781, looked up)
chain: MATQADLMELDMAMEPDRKAAVSHWQQQSYLDSGIHSGATTTAPSLSGKGNPEEEDVDTSQVLYEWEQGFSQSFTQEQVADIDGQYAMTRAQRVRAAMFPETLDEGMQIPSTQFDAAHPTNVQRLAEPSQMLKHAVVNLINYQDDAELATRAIPELTKLLNDEDQVVVNKAAVMVHQLSKKEASRHAIMRSPQMVSAIVRTMQNTNDVETARCTAGTLHNLSHHREGLLAIFKSGGIPALVKMLGSPVDSVLFYAITTLHNLLLHQEGAKMAVRLAGGLQKMVALLNKTNVKFLAITTDCLQILAYGNQESKLIILASGGPQALVNIMRTYTYEKLLWTTSRVLKVLSVCSSNKPAIVEAGGMQALGLHLTDPSQRLVQNCLWTLRNLSDAATKQEGMEGLLGTLVQLLGSDDINVVTCAAGILSNLTCNNYKNKMMVCQVGGIEALVRTVLRAGDREDITEPAICALRHLTSRHQEAEMAQNAVRLHYGLPVVVKLLHPPSHWPLIKATVGLIRNLALCPANHAPLREQGAIPRLVQLLVRAHQDTQRRTSMGGTQQQFVEGVRMEEIVEGCTGALHILARDVHNRIVIRGLNTIPLFVQLLYSPIENIQRVAAGVLCELAQDKEAAEAIEAEGATAPLTELLHSRNEGVATYAAAVLFRMSEDKPQDYKKRLSVELTSSLFRTEPMAWNETADLGLDIGAQGEPLGYRQDDPSYRSFHSGGYGQDALGMDPMMEHEMGGHHPGADYPVDGLPDLGHAQDLMDGLPPGDSNQLAWFDTDL
notes: Transiently expressed in U87/EGFR or A431 cells; also called FLAG-β-catenin; not shown: FLAG tag
B2: E-cadherin (endogenous, A431 cells) (other, UniProt P12830 155-882, looked up)
chain: DWVIPPISCPENEKGPFPKNLVQIKSNKDKEGKVFYSITGQGADTPPVGVFIIERETGWLKVTEPLDRERIATYTLFSHAVSSNGNAVEDPMEILITVTDQNDNKPEFTQEVFKGSVMEGALPGTSVMEVTATDADDDVNTYNAAIAYTILSQDPELPDKNMFTINRNTGVISVVTTGLDRESFPTYTLVVQAADLQGEGLSTTATAVITVTDTNDNPPIFNPTTYKGQVPENEANVVITTLKVTDADAPNTPAWEAVYTILNDDGGQFVVTTNPVNNDGILKTAKGLDFEAKQQYILHVAVTNVVPFEVSLTTSTATVTVDVLDVNEAPIFVPPEKRVEVSEDFGVGQEITSYTAQEPDTFMEQKITYRIWRDTANWLEINPDTGAISTRAELDREDFEHVKNSTYTALIIATDNGSPVATGTGTLLLILSDVNDNAPIPEPRTIFFCERNPKPQVINIIDADLPPNTSPFTAELTHGASANWTIQYNDPTQESIILKPKMALEVGDYKINLKLMDNQNKDQVTTLEVSVCDCEGAAGVCRKAQPVEAGLQIPAILGILGGILALLILILLLLLFLRRRAVVKEPLLPPEDDTRDNVYYYDEEGGGEEDQDFDLSQLHRGLDARPEVTRNDVAPTLMSVPRYLPRPANPDEIGNFIDENLKAADTDPTAPPYDSLLVFDYEGSGSEAASLSSLNSSESDKDQDYDYLNEWGNRFKKLADMYGGGEDD
B3: FLAG-β-catenin Y333F (other, UniProt P35222 1-781, looked up)
chain: B1 chain with Y333F
notes: Transiently expressed in U87/EGFR or A431 cells; not shown: FLAG tag
B4: FLAG-PKM2 K367M (kinase-dead) (enzyme)
chain: not shown
notes: Expressed in U87/EGFR cells
B5: FLAG-PKM2 R399/400A (enzyme)
chain: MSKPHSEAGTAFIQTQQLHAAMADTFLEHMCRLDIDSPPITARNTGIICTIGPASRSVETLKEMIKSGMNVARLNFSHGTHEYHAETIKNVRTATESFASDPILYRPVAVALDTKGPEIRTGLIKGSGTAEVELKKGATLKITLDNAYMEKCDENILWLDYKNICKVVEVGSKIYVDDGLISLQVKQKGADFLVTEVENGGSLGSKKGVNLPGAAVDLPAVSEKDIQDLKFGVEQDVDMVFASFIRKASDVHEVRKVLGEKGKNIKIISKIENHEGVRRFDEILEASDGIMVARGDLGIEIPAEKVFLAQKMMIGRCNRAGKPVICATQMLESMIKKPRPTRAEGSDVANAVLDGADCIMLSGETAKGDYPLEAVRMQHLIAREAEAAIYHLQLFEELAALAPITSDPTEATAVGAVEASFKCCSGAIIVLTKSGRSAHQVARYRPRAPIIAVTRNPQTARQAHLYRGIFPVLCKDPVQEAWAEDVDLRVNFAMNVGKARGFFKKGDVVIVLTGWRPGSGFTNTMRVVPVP
notes: Expressed in U87/EGFR cells
B6: FLAG-PKM2 K433E (enzyme)
chain: not shown
notes: Expressed in U87/EGFR cells; also called PKM2 K433E mutant
B7: FLAG-tagged wild-type PKM2 (enzyme)
chain: not shown
notes: Expressed in U87/EGFR cells; also called FLAG-PKM2; WT FLAG-PKM2
B8: endogenous β-catenin (other, human, UniProt P35222 2-781, looked up)
chain: ATQADLMELDMAMEPDRKAAVSHWQQQSYLDSGIHSGATTTAPSLSGKGNPEEEDVDTSQVLYEWEQGFSQSFTQEQVADIDGQYAMTRAQRVRAAMFPETLDEGMQIPSTQFDAAHPTNVQRLAEPSQMLKHAVVNLINYQDDAELATRAIPELTKLLNDEDQVVVNKAAVMVHQLSKKEASRHAIMRSPQMVSAIVRTMQNTNDVETARCTAGTLHNLSHHREGLLAIFKSGGIPALVKMLGSPVDSVLFYAITTLHNLLLHQEGAKMAVRLAGGLQKMVALLNKTNVKFLAITTDCLQILAYGNQESKLIILASGGPQALVNIMRTYTYEKLLWTTSRVLKVLSVCSSNKPAIVEAGGMQALGLHLTDPSQRLVQNCLWTLRNLSDAATKQEGMEGLLGTLVQLLGSDDINVVTCAAGILSNLTCNNYKNKMMVCQVGGIEALVRTVLRAGDREDITEPAICALRHLTSRHQEAEMAQNAVRLHYGLPVVVKLLHPPSHWPLIKATVGLIRNLALCPANHAPLREQGAIPRLVQLLVRAHQDTQRRTSMGGTQQQFVEGVRMEEIVEGCTGALHILARDVHNRIVIRGLNTIPLFVQLLYSPIENIQRVAAGVLCELAQDKEAAEAIEAEGATAPLTELLHSRNEGVATYAAAVLFRMSEDKPQDYKKRLSVELTSSLFRTEPMAWNETADLGLDIGAQGEPLGYRQDDPSYRSFHSGGYGQDALGMDPMMEHEMGGHHPGADYPVDGLPDLGHAQDLMDGLPPGDSNQLAWFDTDL
notes: In EGF-treated cells it is tyrosine-phosphorylated (Y333) in the nucleus

Changes are numbered by the printed parent chain. Names and notes keep the numbering of the source.

Assay [1] concerns the target APC (endogenous, A431 cells) (UniProt P25054 2-2843, limits assumed). Put plainly: co-IP, A431 cells.
Assay [2] has as its target AXIN2 (endogenous, A431 cells) (UniProt Q9Y2T1 1-843). Kind of assay: co-IP, A431 cells.
The target in the assay “FLAG-tagged WT β-catenin” is B1. Put plainly: co-IP, A431 cells.
The target of the assay “FLAG-β-catenin Y333F” is B3. Kind of assay: co-IP, A431 cells.
For the assay “endogenous β-catenin”, the target named is B8. Kind of assay: co-IP, EGF-treated U87/EGFR cells.
The next assay addresses T1, purified GST-importin α5 (human, UniProt P52294 1-538, limits assumed).
T1 construct: Expressed in bacteria and purified; not shown: GST
Put plainly: GST pull-down from lysates of EGF-treated U87/EGFR cells.

For another assay, the target named is endogenous c-Src (human, UniProt P12931 2-536). Put plainly: co-IP from nuclear fractions of U87/EGFR cells.

Chain of APC (endogenous, A431 cells) (P25054 2-2843 limits assumed): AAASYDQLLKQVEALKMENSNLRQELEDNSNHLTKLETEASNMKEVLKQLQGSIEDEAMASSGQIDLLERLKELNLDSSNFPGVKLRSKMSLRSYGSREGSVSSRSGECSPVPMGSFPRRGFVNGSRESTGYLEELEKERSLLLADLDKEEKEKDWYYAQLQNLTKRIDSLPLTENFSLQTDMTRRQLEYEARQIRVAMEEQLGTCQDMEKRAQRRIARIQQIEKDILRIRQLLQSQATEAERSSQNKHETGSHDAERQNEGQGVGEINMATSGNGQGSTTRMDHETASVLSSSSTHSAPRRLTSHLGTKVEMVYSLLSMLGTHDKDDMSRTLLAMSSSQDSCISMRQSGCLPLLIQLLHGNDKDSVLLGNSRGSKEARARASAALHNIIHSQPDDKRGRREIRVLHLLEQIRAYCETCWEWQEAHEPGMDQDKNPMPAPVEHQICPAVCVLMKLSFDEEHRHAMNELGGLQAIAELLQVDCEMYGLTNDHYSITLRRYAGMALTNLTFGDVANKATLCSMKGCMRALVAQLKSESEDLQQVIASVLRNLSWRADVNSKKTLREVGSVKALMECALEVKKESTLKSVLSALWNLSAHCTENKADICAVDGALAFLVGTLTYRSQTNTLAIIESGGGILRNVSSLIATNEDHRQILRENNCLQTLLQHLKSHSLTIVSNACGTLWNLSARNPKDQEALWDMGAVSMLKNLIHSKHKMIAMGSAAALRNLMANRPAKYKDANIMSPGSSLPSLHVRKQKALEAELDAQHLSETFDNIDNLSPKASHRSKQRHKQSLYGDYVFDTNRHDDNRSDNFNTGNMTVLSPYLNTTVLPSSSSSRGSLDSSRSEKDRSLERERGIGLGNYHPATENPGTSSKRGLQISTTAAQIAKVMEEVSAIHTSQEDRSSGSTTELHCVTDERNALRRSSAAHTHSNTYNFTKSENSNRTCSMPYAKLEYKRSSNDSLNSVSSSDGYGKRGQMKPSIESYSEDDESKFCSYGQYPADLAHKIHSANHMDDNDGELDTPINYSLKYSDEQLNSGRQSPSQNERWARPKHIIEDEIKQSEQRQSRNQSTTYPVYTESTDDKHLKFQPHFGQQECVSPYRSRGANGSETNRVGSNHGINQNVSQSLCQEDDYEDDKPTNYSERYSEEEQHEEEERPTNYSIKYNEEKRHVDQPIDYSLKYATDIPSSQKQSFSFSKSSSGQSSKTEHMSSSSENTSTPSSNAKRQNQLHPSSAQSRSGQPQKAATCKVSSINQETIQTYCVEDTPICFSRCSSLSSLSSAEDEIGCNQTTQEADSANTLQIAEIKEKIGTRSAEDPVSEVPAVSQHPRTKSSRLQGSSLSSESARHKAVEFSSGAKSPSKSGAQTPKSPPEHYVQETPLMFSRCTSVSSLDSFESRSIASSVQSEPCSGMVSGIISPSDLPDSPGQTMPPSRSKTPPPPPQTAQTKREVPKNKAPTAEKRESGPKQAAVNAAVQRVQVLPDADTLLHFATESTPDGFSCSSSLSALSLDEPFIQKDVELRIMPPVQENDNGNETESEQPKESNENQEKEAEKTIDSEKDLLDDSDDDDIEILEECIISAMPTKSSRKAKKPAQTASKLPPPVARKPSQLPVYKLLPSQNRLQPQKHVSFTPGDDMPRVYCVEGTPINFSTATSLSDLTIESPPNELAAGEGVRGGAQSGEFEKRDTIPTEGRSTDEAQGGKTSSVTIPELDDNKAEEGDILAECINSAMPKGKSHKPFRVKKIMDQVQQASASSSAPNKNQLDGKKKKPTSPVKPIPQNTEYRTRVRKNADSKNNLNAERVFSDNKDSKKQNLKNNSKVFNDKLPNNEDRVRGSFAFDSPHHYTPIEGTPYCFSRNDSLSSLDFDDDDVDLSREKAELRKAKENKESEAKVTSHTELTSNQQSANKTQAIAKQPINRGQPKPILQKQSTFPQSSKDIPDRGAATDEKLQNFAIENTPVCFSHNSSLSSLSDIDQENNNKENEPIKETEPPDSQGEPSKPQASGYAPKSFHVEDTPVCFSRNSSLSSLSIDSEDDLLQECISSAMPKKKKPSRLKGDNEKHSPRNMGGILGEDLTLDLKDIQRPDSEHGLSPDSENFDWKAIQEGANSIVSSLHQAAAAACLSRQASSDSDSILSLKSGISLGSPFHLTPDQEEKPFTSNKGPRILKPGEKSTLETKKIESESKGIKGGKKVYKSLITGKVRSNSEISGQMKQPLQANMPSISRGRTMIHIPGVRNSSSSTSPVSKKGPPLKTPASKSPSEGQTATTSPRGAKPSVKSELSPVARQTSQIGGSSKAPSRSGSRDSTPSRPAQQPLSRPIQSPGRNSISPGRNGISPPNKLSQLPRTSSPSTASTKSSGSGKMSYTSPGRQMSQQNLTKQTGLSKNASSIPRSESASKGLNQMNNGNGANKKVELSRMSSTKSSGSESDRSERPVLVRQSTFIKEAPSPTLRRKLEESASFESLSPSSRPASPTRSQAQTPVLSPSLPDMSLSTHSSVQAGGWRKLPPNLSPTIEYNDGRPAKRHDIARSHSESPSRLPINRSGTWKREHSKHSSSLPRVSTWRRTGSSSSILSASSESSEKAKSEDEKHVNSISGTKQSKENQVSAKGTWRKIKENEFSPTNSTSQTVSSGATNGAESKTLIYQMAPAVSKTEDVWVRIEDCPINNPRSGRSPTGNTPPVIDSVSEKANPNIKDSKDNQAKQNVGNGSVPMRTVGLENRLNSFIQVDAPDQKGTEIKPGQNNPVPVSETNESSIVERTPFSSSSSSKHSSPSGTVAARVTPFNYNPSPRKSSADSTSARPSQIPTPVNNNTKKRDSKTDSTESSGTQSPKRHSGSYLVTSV
Chain of AXIN2 (endogenous, A431 cells) (Q9Y2T1 whole entry): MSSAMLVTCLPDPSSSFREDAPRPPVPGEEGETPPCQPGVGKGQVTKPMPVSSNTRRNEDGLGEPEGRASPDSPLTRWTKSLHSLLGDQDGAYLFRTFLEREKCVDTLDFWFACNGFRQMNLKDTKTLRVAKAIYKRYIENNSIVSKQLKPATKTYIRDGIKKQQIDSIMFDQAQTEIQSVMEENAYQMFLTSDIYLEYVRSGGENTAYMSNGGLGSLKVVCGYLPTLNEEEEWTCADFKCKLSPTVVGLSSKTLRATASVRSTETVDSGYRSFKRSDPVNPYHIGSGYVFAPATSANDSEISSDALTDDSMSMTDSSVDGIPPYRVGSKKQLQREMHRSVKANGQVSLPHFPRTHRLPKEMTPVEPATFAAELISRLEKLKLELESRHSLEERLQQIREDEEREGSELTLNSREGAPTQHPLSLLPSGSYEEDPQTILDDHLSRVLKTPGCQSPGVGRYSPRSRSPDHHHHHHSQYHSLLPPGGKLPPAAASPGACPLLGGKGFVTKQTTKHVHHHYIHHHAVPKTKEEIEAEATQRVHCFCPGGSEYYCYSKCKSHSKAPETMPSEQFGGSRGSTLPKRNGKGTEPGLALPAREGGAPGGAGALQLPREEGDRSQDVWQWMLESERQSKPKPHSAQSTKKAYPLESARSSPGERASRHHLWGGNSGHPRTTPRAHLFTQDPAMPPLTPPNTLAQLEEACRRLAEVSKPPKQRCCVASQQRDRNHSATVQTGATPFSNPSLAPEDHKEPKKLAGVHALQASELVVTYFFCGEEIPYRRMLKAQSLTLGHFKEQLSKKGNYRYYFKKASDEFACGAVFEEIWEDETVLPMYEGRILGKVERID
T1 sequence (P52294 whole entry): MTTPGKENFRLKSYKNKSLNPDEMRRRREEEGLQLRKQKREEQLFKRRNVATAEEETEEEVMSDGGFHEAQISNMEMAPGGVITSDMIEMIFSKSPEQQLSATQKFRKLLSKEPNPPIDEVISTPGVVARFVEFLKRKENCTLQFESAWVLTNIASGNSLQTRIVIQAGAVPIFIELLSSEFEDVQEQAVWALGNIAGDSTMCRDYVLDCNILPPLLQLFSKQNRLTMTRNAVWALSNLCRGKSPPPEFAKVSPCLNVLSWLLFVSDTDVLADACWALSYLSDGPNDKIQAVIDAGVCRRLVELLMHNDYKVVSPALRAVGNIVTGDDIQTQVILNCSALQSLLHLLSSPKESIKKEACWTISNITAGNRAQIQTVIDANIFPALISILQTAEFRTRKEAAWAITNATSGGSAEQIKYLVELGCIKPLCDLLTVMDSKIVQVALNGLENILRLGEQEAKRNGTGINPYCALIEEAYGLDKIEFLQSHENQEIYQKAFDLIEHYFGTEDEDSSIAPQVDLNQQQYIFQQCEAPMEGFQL

With B1, the binding result in assay [1] and in assay [2] was “binds” in each case.
With B2, the binding result with FLAG-tagged WT β-catenin and with FLAG-β-catenin Y333F was “binds” in each case.
B3: the binding result in assay [1] and in assay [2] was “binds” in each case.
With B4, in the assay with endogenous β-catenin, the binding result is on record as “binds”.
As to B5, in the assay with purified GST-importin α5, the binding result is listed as “no binding”.
Turning to B6, in the assay with endogenous β-catenin, the binding result is listed as “no binding”.
On to B7, for which the binding result with endogenous β-catenin was “binds”.
Take B8: in the assay with endogenous c-Src, the binding result is “binds”.
